Target: recombinant PRCP51 (recombinant human prolylcarboxypeptidase, predicted molecular mass 51 kDa) (human) (UniProt P42785)
Test: cell-based or functional assay

recombinant PRCP51 (recombinant human prolylcarboxypeptidase, predicted molecular mass 51 kDa) (human), sequence (P42785 46-496 limits assumed): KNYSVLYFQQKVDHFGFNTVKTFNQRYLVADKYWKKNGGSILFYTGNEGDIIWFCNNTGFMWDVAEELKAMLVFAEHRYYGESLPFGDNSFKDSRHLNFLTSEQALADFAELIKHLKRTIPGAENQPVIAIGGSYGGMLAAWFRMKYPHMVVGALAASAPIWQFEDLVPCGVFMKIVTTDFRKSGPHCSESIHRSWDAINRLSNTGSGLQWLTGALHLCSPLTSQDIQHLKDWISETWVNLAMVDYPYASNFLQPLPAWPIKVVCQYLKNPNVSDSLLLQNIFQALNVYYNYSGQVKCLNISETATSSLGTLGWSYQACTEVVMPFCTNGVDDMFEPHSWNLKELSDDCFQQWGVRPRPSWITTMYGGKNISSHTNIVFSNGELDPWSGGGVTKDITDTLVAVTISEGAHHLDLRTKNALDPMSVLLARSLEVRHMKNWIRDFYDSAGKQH

inhibition of rPRCP51-induced prekallikrein (PK) activation (residual kallikrein activity on S2302), IC50: 150 µM
Substance: angiotensinogen II (AgII) (from UniProt P01019 25-32) (peptide)
